From publication PMC6204840

Legend:
[1] = target: Fcγ receptor IIIa (V176 or F176, not told which) (UniProt P08637); test: ELISA
[2] = target: Fcγ receptor IIIa (V176 or F176, not told which) (UniProt P08637)
[3] = target: soluble human neonatal Fc receptor (FcRn alpha chain extracellular domain + beta2-microglobulin) (UniProt P55899+P61769); test: SPR; settings: pH 6.0, PBS (concentration not stated), adjusted to pH 6.0 or pH 7.4
[4] = target: recombinant cynomolgus monkey FcRn (cynomolgus monkey) (UniProt Q8SPV9); test: BLI
UniProt Q8SPV9, sequence (Q8SPV9 24-297, chain 1 of 2): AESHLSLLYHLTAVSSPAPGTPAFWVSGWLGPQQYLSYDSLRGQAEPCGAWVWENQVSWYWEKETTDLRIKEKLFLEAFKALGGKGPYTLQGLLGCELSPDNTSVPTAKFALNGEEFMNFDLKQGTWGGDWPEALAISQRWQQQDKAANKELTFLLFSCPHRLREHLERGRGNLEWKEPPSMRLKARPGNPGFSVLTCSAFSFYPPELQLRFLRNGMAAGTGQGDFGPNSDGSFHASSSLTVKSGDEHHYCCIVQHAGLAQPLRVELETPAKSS
UniProt Q8SPV9, sequence (Q8SPW0 21-119, chain 2 of 2, further chain): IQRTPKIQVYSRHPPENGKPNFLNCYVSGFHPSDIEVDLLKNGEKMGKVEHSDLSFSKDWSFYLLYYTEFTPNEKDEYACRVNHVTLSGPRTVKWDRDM

[5] = target: motavizumab IgG1 with Fc variant DF183 (human); test: SPR
[6] = target: motavizumab IgG1 with wild type Fc (human); test: SPR
[7] = target: motavizumab IgG1 with Fc variant DF213 (human); test: SPR
[8] = target: motavizumab IgG1 with Fc variant DF197 (human); test: SPR
[9] = target: motavizumab IgG1 with Fc variant DF215 (human); test: SPR

UniProt P08637, sequence (P08637 17-208): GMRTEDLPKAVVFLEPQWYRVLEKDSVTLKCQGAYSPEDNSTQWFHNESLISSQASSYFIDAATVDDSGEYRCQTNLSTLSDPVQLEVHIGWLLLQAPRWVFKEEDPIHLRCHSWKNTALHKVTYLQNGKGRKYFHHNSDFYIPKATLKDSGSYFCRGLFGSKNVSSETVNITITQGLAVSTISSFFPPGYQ

Row | Substance | EC50 [1] [nM] | ADCC EC50 (ADCC Reporter Bioassay, rituximab Fab, WIL2-S cells) [2] [ng/mL] | ka [3] [M⁻¹ s⁻¹] | kd [3] [s⁻¹] | also measured
1 | rituximab IgG1 with Fc variant YTE (antibody) | 1010 | 15 | – | – | –
2 | motavizumab IgG1 DF215 T307Q;Q311V;A378V | – | – | 1.37e+06 | 0.027 | –
3 | motavizumab with wild type human IgG1 Fc (antibody) | – | – | – | – | Kd [4]: 13.7 nM
4 | recombinant human FcRn heterodimer (α-FcRn extracellular domain with β2M) (from UniProt P55899 24-297; P61769 21-119) (complex) | – | – | – | – | Kd [5]: 21 nM; Kd [6]: 825 nM; Kd [7]: 24 nM; Kd [8]: 21 nM; Kd [9]: 19 nM
5 | rituximab IgG1 with Fc variant LS (antibody) | 192 | – | – | – | –
6 | rituximab IgG1 with Fc variant DF197 (antibody) | 97.4 | 8.3 | – | – | –
7 | motavizumab IgG1 DF197 H285N;T307Q;N315D | – | – | 1.59e+06 | 0.0328 | –

Continued, in another order:

Row | EC50 [1] [nM] | ADCC EC50 (ADCC Reporter Bioassay, rituximab Fab, WIL2-S cells) [2] [ng/mL] | ka [3] [M⁻¹ s⁻¹] | kd [3] [s⁻¹] | Substance | also measured
8 | – | – | 1.39e+06 | 0.0142 | motavizumab IgG1 DF228 T256D;H286D (as printed; probably N286D);T307R;Q311V;A378V | –
9 | 538 | – | – | – | rituximab IgG1 with wild type Fc (antibody) | –
10 | 139 | 4.01 | – | – | rituximab IgG1 with Fc variant DF213 (antibody) | –
11 | – | – | 800000 | 0.0192 | motavizumab IgG1 DF213 H285D;T307Q;A378V | –
12 | 154 | 2.66 | – | – | rituximab IgG1 with Fc variant DF228 (antibody) | –
13 | 87.2 | 3.92 | – | – | rituximab IgG1 with Fc variant DF183 (antibody) | –
14 | 142 | 2.73 | – | – | rituximab IgG1 with Fc variant DF215 (antibody) | –
15 | – | – | 1.93e+06 | 0.0402 | motavizumab IgG1 DF183 T256D;Q311V;A378V | –
